According to patent US20240352111A1 (Regeneron, published 2024):
Changes are numbered by the printed parent chain.

B1: H4H33336P (antibody, human IgG4 S228P, kappa, V domains shown)
VH: QVQLVESGGGVVQPGRSLRLSCVASGFILSHYGMHWVRQAPGKGLEWVAVIWFDGTNKYYADSVKGRFTVSRDNSKNTLYMQMNSLRAEDTAVYYCARDPPPARRGNYNGMDVWGQGTTVTVSS
VL: DIQMTQSPSSLSASVGDRVTITCRASQDIRNDLGWYQQKPGKAPKRLIFGASSLQSGVPLRFSGSGSGTEFTLTINNLQPEDFATFYCLQDNSYPWTFGQGTKVEIKR
notes: Fully human antibody; also called Artemin mAb; anti-ARTN antibody
B2: H4H33331P (antibody, human IgG4 S228P, kappa, V domains shown)
VH: EVQLVESGGDLVQPGGSLKLSCAASGFTFSGSAMHWVRQASGKGLEWVGRIRNKVHRYATEYGASVKGRFTISRDDSKNTAYLQMNSLKIEDTAVYYCVVVVPGSIEAFDIWGQGTMVTVSS
VL: DIQMTQSPSSLSASVGDRVTITCRASQSISTYLNWYQQKPGKAPNLLIYAASTLESGVPSRFSGSGSGTDFTLTISSLQPEDFEIYYCQQSYNIPWTFGQGTKVEIKR
notes: Fully human antibody (human variable and constant domains) from a VELOCIMMUNE mouse; also called Artemin mAb; anti-ARTN antibody
B3: H4H33349P (antibody, human IgG4 S228P, kappa, V domains shown)
VH: QVQLVESGGGVVQPGRSLRLSCEASGFTFSDYDLHWVRQAPGKGLEWVAFISNDGSNEYYPKSVKGRFSISRDNSKNTLYLQMNSLRAEDTAVYHCTKERDYYYDSSGSLDYWGQGTLVTVSS
VL: DIQMTQSPSSLSASVGDRVTITCRASQTINNYLNWYQQKPGKAPKLLIYTTSGLQSGVPSRFSGRGSGTDFTLAISSLQPEDFATYYCQQSYHSPFTFGPGTKVDIKR
notes: as for B1

Tests used:
hArtemin-MMH [1] = target: T1, hArtemin-MMH (human); assay: blocking ELISA, antibody blocks 75 pM hARTN.mmh binding to plate-coated hGFRa3.hFc
T1 construct: also called hARTN.mmh; hARTN (A108-G220).mmh
T1 chain: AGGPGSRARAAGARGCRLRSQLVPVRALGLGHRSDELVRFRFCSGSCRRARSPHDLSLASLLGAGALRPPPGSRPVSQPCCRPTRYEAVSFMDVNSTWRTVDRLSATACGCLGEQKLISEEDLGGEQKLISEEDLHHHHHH
Procedure: (§1) Experiments were carried out using the following procedures. Plates were coated with hGFRa3.hFc at 2 μg/ml in PBS on a 96-well microtiter plate at 4° C. overnight for all three assays. […] In other microtiter plates, a constant amount of either 75 pM hARTN.mmh, 400 pM mfARTN.mmh, or 150 pM msARTN.mmh were separately bound with anti-ARTN antibodies and an irrelevant IgG4 antibody control at a serial dilution series from 0.0017 nM to 100 nM in PBS+0.5% BSA. After a one-hour incubation, the mixture solutions were transferred to microtiter plates coated with hGFRa3.hFc. After one hour of incubation at RT, the wells were washed with PBST, and plate-bound ARTN was detected with an anti-penta-His antibody conjugated with horseradish peroxidase (HRP) (Qiagen). The plates were then developed using TMB substrate solution (BD Biosciences, #555214) according to manufacturer's recommendation and absorbance at 450 nm was measured on a Victor X5 plate reader.
(§2) Binding data were analyzed using a sigmoidal dose-response model within Prism™ software (GraphPad). […] If the calculated IC50 value was below the LLOA, less than LLOA was reported. Percent blocking at 100 nM antibody was calculated based on the background-corrected binding signal observed at the highest antibody concentration tested using the formula listed below and reported for all tested antibodies: […]

mArtemin-MMH [2] = target: T2, mArtemin-MMH (mouse); assay: BLI (Octet HTX), mAb captured on AHC tips, artemin at 7.5 nM, 25 C
T2 construct: also called msArtemin-MMH; msARTN.mmh
T2 chain: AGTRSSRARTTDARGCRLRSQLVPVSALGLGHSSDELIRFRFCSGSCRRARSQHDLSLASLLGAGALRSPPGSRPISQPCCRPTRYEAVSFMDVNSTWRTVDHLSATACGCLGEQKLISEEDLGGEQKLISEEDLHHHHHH
Procedure: (§3) The entire experiment was performed at 25° C. in 10 mM HEPES, 150 mM NaCl, 3 mM EDTA, 0.02% NaN3 and 0.05% v/v Surfactant Tween-20, 1 mg/mL BSA, pH7.4 (HBS-EBT) buffer with the plate shaking at a speed of 1000 rpm. Different Artemin mAbs were first captured onto anti-human antibody (AHC) coated Octet biosensor tips (Fortebio Inc, #18-5064) by submerging the biosensor tips for 40 seconds in wells containing 2 μg/mL of Artemin mAb. […] All the Artemin and Artemin mAb samples were prepared in HBS-EBT buffer. The real-time binding response was monitored during the entire course of the experiment and the binding response at the end of every step was recorded.

hArtemin-MMH [3] = target: T1, hArtemin-MMH; assay: as above
Procedure: as §3

MfArtemin-MMH [4] = target: T3, MfArtemin-MMH (cynomolgous monkey (Macaca fascicularis)); assay: as above
T3 construct: also called mfARTN.mmh; mfARTN (A108-G22).mmh
T3 chain: T1 chain with A8P, V76I
Procedure: as §3

hArtemin-MMH [5] = target: T1, hArtemin-MMH; assay: SPR Biacore T200, hArtemin-MMH captured by anti-myc mAb, mAb injected, 25 C
Procedure: (§4) The equilibrium dissociation constant (KD) for Artemin binding to each of Artemin monoclonal antibodies (mAbs) H4H33331P, H4H33335P, H4H33336P, and H4H33349P was determined using a real-time surface plasmon resonance Biacore T200 biosensor. All binding studies were performed in 10 mM HEPES, 150 mM NaCl, 3 mM EDTA, and 0.05% v/v Surfactant Tween-20, pH 7.4 (HBS-ET) running buffer at 25° C. The Biacore CM4 sensor chip surface was first derivatized by amine coupling with anti-myc mAb to capture hArtemin-MMH, MfArtemin-MMH, or mArtemin-MMH. Different concentrations of Artemin mAbs (60-2.2 nM, 3-fold serial dilution) prepared in […] running buffer were injected over the Artemin-captured surfaces for 3 min at a flow rate of 50 μL/min and their dissociation in HBS-ET running buffer was monitored for 5 minutes. At the end of each cycle, the Artemin-captured surfaces were regenerated using a 6 sec injection of 20 mM phosphoric acid.
(§5) The association rate (kₐ) and dissociation rate (kd) were determined by fitting the real-time binding sensorgrams to a 1:1 binding model with mass transport limitation using Scrubber 2.0c curve-fitting software. Binding dissociation equilibrium constant (KD) and dissociative half-life (t½) were calculated from the kinetic rates as: KD (M)=kd/kₐ, and t_{1/2} (min)=[In2/(60*kd)].

mArtemin-MMH [6] = target: T2, mArtemin-MMH; assay: BLI (Octet HTX), mAb captured on AHC tips, artemin at 3.75 nM, 25 C
Procedure: as §3

hArtemin-MMH [7] = target: T1, hArtemin-MMH; assay: as above
Procedure: as §3

MfArtemin-MMH [8] = target: T3, MfArtemin-MMH; assay: as above
Procedure: as §3

mArtemin-MMH [9] = target: T2, mArtemin-MMH; assay: SPR Biacore T200, mArtemin-MMH captured by anti-myc mAb, mAb injected, 25 C
Procedure: as §4, §5

mArtemin-MMH [10] = target: T2, mArtemin-MMH; assay: cell-based or functional assay
hArtemin-MMH [11] = target: T1, hArtemin-MMH; assay: cell-based or functional assay
MfArtemin-MMH [12] = target: T3, MfArtemin-MMH; assay: cell-based or functional assay
MfArtemin-MMH [13] = target: T3, MfArtemin-MMH; assay: blocking ELISA, antibody blocks 400 pM mfARTN.mmh binding to plate-coated hGFRa3.hFc
Procedure: as §1, §2

Binder	% Blocking with 100 nM Ab (hArtemin-MMH [1]) [%]	IC50 (hArtemin-MMH [1]) [nM]	Artemin Binding Response (nm) (mArtemin-MMH [2])	Artemin Binding Response (nm) (hArtemin-MMH [3])	Artemin Binding Response (nm) (MfArtemin-MMH [4])	60 nM Artemin mAb Bound (RU) (hArtemin-MMH [5])	Kd (hArtemin-MMH [5]) [nM]	koff (hArtemin-MMH [5]) [s⁻¹]	kon (hArtemin-MMH [5]) [M⁻¹ s⁻¹]	t½ (hArtemin-MMH [5]) [h]	Artemin Binding Response (nm) (mArtemin-MMH [6])	Artemin Binding Response (nm) (hArtemin-MMH [7])	Artemin Binding Response (nm) (MfArtemin-MMH [8])	60 nM Artemin mAb Bound (RU) (mArtemin-MMH [9])	Max inhibition (%), SRE-luciferase reporter, 1 nM mArtemin (mArtemin-MMH [10]) [%]	Max inhibition (%), SRE-luciferase reporter, 500 pM hArtemin (hArtemin-MMH [11]) [%]	Max inhibition (%), SRE-luciferase reporter, 3 nM mfArtemin (MfArtemin-MMH [12]) [%]	% Blocking with 100 nM Ab (MfArtemin-MMH [13]) [%]	Kd (mArtemin-MMH [9]) [nM]	koff (mArtemin-MMH [9]) [s⁻¹]	also measured
B1	93	0.161	0	0.05	0.01	15	0.15	3.75e-05	249000	5.13	0.01	0.03	0.01	3	100	100	100	86	–	–	–
B2	88	0.38	0.07	0.07	0.01	7	2.91	0.000366	126000	0.533	0.03	0.02	0	7	100	100	100	90	0.346	5.4e-05	kon (mArtemin-MMH [9]): 156000 M⁻¹ s⁻¹; t½ (mArtemin-MMH [9]): 3.57 h; IC50 (MfArtemin-MMH [13]): 0.105 nM
B3	95	0.128	0.11	0.11	0.04	18	0.119	5.9e-05	497000	3.27	0.07	0.07	0.02	20	100	100	100	88	0.113	5.91e-05	kon (mArtemin-MMH [9]): 521000 M⁻¹ s⁻¹; t½ (mArtemin-MMH [9]): 3.25 h
